According to paper PMC3274520:

Experiments:
[1] = target: full-length MNV-1 NS1-2, bacterial two-hybrid fusions (pBT-NS1-2full and pTRG-NS1-2full) (Murine norovirus (MNV-1)); test: two-hybrid; BacterioMatch II bacterial two-hybrid; NS1-2 fused to λcI (pBT) and to the RNA polymerase α-subunit (pTRG); selective medium with 3 mM 3-AT
[2] = target: truncated MNV-1 NS1-2 fragment (minus the transmembrane domain), recombinant from E. coli (Murine norovirus (MNV-1)); test: SEC + other: sucrose gradient sedimentation; Stokes radius from the calibrated Superose12 column and sedimentation coefficient from 5-20% sucrose gradients (16 h, 130,000×g, 4°C) joined in the simplified Svedberg equation; monomer and dimer fractions of the size exclusion column
[3] = target: truncated MNV-1 NS1-2, bacterial two-hybrid fusions (pBT-NS1-2trunc and pTRG-NS1-2trunc) (Murine norovirus (MNV-1)); test: two-hybrid; BacterioMatch II bacterial two-hybrid; NS1-2 fused to λcI (pBT) and to the RNA polymerase α-subunit (pTRG); selective medium with 3 mM 3-AT

full-length MNV-1 NS1-2, bacterial two-hybrid fusions (pBT-NS1-2full and pTRG-NS1-2full) (natural protein)
percent positive (transcriptional activation) [1]: 26%

truncated MNV-1 NS1-2 fragment (minus the transmembrane domain), recombinant from E. coli (domain or fragment)
stoichiometry N [2]: 2

truncated MNV-1 NS1-2, bacterial two-hybrid fusions (pBT-NS1-2trunc and pTRG-NS1-2trunc) (domain or fragment)
percent positive (transcriptional activation) [3]: 38%
